Tests used:
[1] = molecular target: GST-SOCS3 (full-length) [GST: P08515]
[2] = molecular target: GST-SOCS3-DC (1-138aa, deletion of the C-terminal SOCS box) [GST: P08515]
[3] = molecular target: GST-SOCS3-N (1-45aa) [GST: P08515]
[4] = molecular target: endogenous ASK1 of bovine aorta endothelial cells (BAEC), A0AAA9

Protein	phosphorylation in an in vitro kinase assay [1]	phosphorylation in an in vitro kinase assay [2]	phosphorylation in an in vitro kinase assay [3]	ASK1 ubiquitination and degradation (Western blot; IP anti-ASK1, blot anti-Ub) [4]	ASK1 ubiquitination and degradation (Western blot with anti-Flag) (Flag-ASK1-ΔN, Q99683)
HA-tagged ASK1-WT (protein) MSTEADEGITFSVPPFAPSGFCTIPEGGICRRGGAAAVGEGEEHQLPPPPPGSFWNVESAAAPGIGCPAATSSSSATRGRGSSVGGGSRRTTVAYVINEASQGQLVVAESEALQSLREACETVGATLETLHFGKLDFGETTVLDRFYNADIAVVEMSDAFRQPSLFYHLGVRESFSMANNIILYCDTNSDSLQSLKEIICQKNTMCTGNYTFVPYMITPHNKVYCCDSSFMKGLTELMQPNFELLLGPICLPLVDRFIQLLKVAQASSSQYFRESILNDIRKARNLYTGKELAAELARIRQRVDNIEVLTADIVINLLLSYRDIQDYDSIVKLVETLEKLPTFDLASHHHVKFHYAFALNRRNLPGDRAKALDIMIPMVQSEGQVASDMYCLVGRIYKDMFLDSNFTDTESRDHGASWFKKAFESEPTLQSGINYAVLLLAAGHQFESSFELRKVGVKLSSLLGKKGNLEKLQSYWEVGFFLGASVLANDHMRVIQASEKLFKLKTPAWYLKSIVETILIYKHFVKLTTEQPVAKQELVDFWMDFLVEATKTDVTVVRFPVLILEPTKIYQPSYLSINNEVEEKTISIWHVLPDDKKGIHEWNFSASSVRGVSISKFEERCCFLYVLHNSDDFQIYFCTELHCKKFFEMVNTITEEKGRSTEEGDCESDLLEYDYEYDENGDRVVLGKGTYGIVYAGRDLSNQVRIAIKEIPERDSRYSQPLHEEIALHKHLKHKNIVQYLGSFSENGFIKIFMEQVPGGSLSALLRSKWGPLKDNEQTIGFYTKQILEGLKYLHDNQIVHRDIKGDNVLINTYSGVLKISDFGTSKRLAGINPCTETFTGTLQYMAPEIIDKGPRGYGKAADIWSLGCTIIEMATGKPPFYELGEPQAAMFKVGMFKVHPEIPESMSAEAKAFILKCFEPDPDKRACANDLLVDEFLKVSSKKKKTQPKLSALSAGSNEYLRSISLPVPVLVEDTSSSSEYGSVSPDTELKVDPFSFKTRAKSCGERDVKGIRTLFLGIPDENFEDHSAPPSPEEKDSGFFMLRKDSERRATLHRILTEDQDKIVRNLMESLAQGAEEPKLKWEHITTLIASLREFVRSTDRKIIATTLSKLKLELDFDSHGISQVQVVLFGFQDAVNKVLRNHNIKPHWMFALDSIIRKAVQTAITILVPELRPHFSLASESDTADQEDLDVEDDHEEQPSNQTVRRPQAVIEDAVATSGVSTLSSTVSHDSQSAHRSLNVQLGRMKIETNRLLEELVRKEKELQALLHRAIEEKDQEIKHLKLKSQPIEIPELPVFHLNSSGTNTEDSELTDWLRVNGADEDTISRFLAEDYTLLDVLYYVTRDDLKCLRLRGGMLCTLWKAIIDFRNKQT	only the full-length GST-SOCS3 was phosphorylated by ASK1	only the full-length GST-SOCS3 was phosphorylated by ASK1	only the full-length GST-SOCS3 was phosphorylated by ASK1		
Flag-tagged Trx-WT (protein) MVKQIESKTAFQEALDAAGDKLVVVDFSATWCGPCKMIKPFFHSLSEKYSNVIFLEVDVDDCQDVASECEVKCMPTFQFFKKGQKVGEFSGANKEKLEATINELV				Trx expression significantly increased ASK1 ubiquitination	expression of Trx did not induce ubiquitination and degradation of ASK1 -ΔN, a mutant ASK1 lacking the N-terminal Trx-binding domain

Source: patent publication US20060148057
